This passage reports Binding affinity (RU) results from patent US20250011363A1, “OPTIMIZED SHORTENED PEPTIDE THAT BINDS TO ACETYLCHOLINE RECEPTOR, AND USE THEREOF” (SKINMED CO., LTD., priority 2021, published 2025).

For assay [1], the target named is acetylcholine receptor. As to the kind of experiment: SPR, peptide at 10 uM, acetylcholine receptor immobilized on chip. In general terms: SPR reads the build-up and loss of mass on a sensor chip optically.
The target of assay [2] is acetylcholine receptor. Kind of assay: SPR, peptide at 10 uM on acetylcholine receptor.

RKEPK [5mer-603] returned a Binding affinity (RU) with acetylcholine receptor [1] of 27 RU.

In the assay with acetylcholine receptor [1], REDPK [5mer-902] displayed a Binding affinity (RU) of 23 RU.

With RMTKK [5mer-996], the Binding affinity (RU) with acetylcholine receptor [2] was found to be 32 RU.

KAWVR [5mer-994]: the Binding affinity (RU) in the assay with acetylcholine receptor [2] was found to be 26 RU.

In the case of RAHWR [5mer-987], in the assay with acetylcholine receptor [2], the Binding affinity (RU) was found to be 22 RU.

As for KETHR [5mer-674], the Binding affinity (RU) in the assay with acetylcholine receptor [2] worked out at 22 RU.

Regarding RCHFK [5mer-908], the Binding affinity (RU) with acetylcholine receptor [1] is 25 RU.

In turn, RMEIR [5mer-687] yielded a Binding affinity (RU) with acetylcholine receptor [2] of 22 RU.

In the assay with acetylcholine receptor [2], KNAHK [5mer-984] had a Binding affinity (RU) of 11 RU.

RFSDK [5mer-689] returned a Binding affinity (RU) with acetylcholine receptor [2] of 20 RU.

In the assay with acetylcholine receptor [2], RTTGR [5mer-983] registered a Binding affinity (RU) of 23 RU.

As for RIEER [5mer-607], in the assay with acetylcholine receptor [1], the Binding affinity (RU) was 25 RU.

In the assay with acetylcholine receptor [2], RNDIK [5mer-685] showed a Binding affinity (RU) of 21 RU.

In the assay with acetylcholine receptor [2], RFAHK [5mer-975] came in with a Binding affinity (RU) of 18 RU.

Turning to RHHKR [5mer-903], the Binding affinity (RU) with acetylcholine receptor [1] was 21 RU.

KKTVK [5mer-679]: the Binding affinity (RU) in the assay with acetylcholine receptor [2] came out at 21 RU.

In the assay with acetylcholine receptor [1], KPDPK [5mer-904] yielded a Binding affinity (RU) of 23 RU.

In the assay with acetylcholine receptor [2], RCEHR [5mer-696] gave a Binding affinity (RU) of 11 RU.

For RKPGR [5mer-675], the Binding affinity (RU) in the assay with acetylcholine receptor [2] worked out at 31 RU.

For RDHWK [5mer-692], the Binding affinity (RU) with acetylcholine receptor [2] worked out at 15 RU.

In turn, RTMFR [5mer-676] came in with a Binding affinity (RU) with acetylcholine receptor [2] of 18 RU.

On to KCDDK [5mer-610], for which, in the assay with acetylcholine receptor [1], the Binding affinity (RU) was determined as 16 RU.

For the molecule RPEFR [5mer-991], in the assay with acetylcholine receptor [2], the Binding affinity (RU) is 24 RU.

As to RINVK [5mer-909], in the assay with acetylcholine receptor [1], the Binding affinity (RU) was determined as 33 RU.

For RYPHR [5mer-997], the Binding affinity (RU) with acetylcholine receptor [2] was found to be 30 RU.

In turn, RCTAK [5mer-998] had a Binding affinity (RU) with acetylcholine receptor [2] of 18 RU.

On to KDHIR [5mer-611], for which, in the assay with acetylcholine receptor [1], the Binding affinity (RU) worked out at 33 RU.

RCKWR [5mer-988] came in with a Binding affinity (RU) with acetylcholine receptor [2] of 17 RU.

In the assay with acetylcholine receptor [1], RIHWK [5mer-606] yielded a Binding affinity (RU) of 25 RU.

RKEGK [5mer-604] registered a Binding affinity (RU) with acetylcholine receptor [1] of 13 RU.

Turning to RYWAR [5mer-973], the Binding affinity (RU) in the assay with acetylcholine receptor [2] stood at 12 RU.

Consider KNNAR [5mer-694], for which the Binding affinity (RU) in the assay with acetylcholine receptor [2] was determined as 24 RU.

On to KYMGR [5mer-678], for which the Binding affinity (RU) with acetylcholine receptor [2] was 23 RU.

In the case of RFTER [5mer-680], the Binding affinity (RU) in the assay with acetylcholine receptor [2] came to 21 RU.

RPHFK [5mer-688] registered a Binding affinity (RU) with acetylcholine receptor [2] of 31 RU.

As to KYPDK [5mer-683], in the assay with acetylcholine receptor [2], the Binding affinity (RU) came to 32 RU.

Molecule RCEMR [5mer-677] registered a Binding affinity (RU) with acetylcholine receptor [2] of 15 RU.

In the assay with acetylcholine receptor [2], KPNVK [5mer-682] registered a Binding affinity (RU) of 31 RU.

RETNR [5mer-976] had a Binding affinity (RU) with acetylcholine receptor [2] of 16 RU.

In the assay with acetylcholine receptor [2], KFTDK [5mer-995] yielded a Binding affinity (RU) of 18 RU.

RKHAK [5mer-906] yielded a Binding affinity (RU) in the assay with acetylcholine receptor [1] of 31 RU.

KDSVR [5mer-907]: the Binding affinity (RU) with acetylcholine receptor [1] was 18 RU.

In the assay with acetylcholine receptor [2], RKPHR [5mer-980] came in with a Binding affinity (RU) of 33 RU.

KKPDR [5mer-695] showed a Binding affinity (RU) with acetylcholine receptor [2] of 26 RU.

RFNIR [5mer-686] yielded a Binding affinity (RU) in the assay with acetylcholine receptor [2] of 18 RU.

Consider RFCFK [5mer-601], for which the Binding affinity (RU) with acetylcholine receptor [1] was 13 RU.

In the case of KMSVR [5mer-602], the Binding affinity (RU) with acetylcholine receptor [1] worked out at 12 RU.

Turning to KCAER [5mer-684], the Binding affinity (RU) with acetylcholine receptor [2] worked out at 27 RU.

KEWEK [5mer-691]: the Binding affinity (RU) with acetylcholine receptor [2] was 16 RU.

Molecule RHHMK [5mer-979] yielded a Binding affinity (RU) with acetylcholine receptor [2] of 23 RU.

In the assay with acetylcholine receptor [2], RPMDK [5mer-986] displayed a Binding affinity (RU) of 12 RU.

The molecule RCTAR [5mer-989] came in with a Binding affinity (RU) with acetylcholine receptor [2] of 31 RU.

RPSPR [5mer-905]: the Binding affinity (RU) with acetylcholine receptor [1] was 30 RU.

In the case of KEKFR [5mer-993], the Binding affinity (RU) with acetylcholine receptor [2] is 27 RU.

RAEIK [5mer-690] had a Binding affinity (RU) with acetylcholine receptor [2] of 12 RU.

RNDKK [5mer-992] returned a Binding affinity (RU) with acetylcholine receptor [2] of 15 RU.

In turn, RKTMK [5mer-609] registered a Binding affinity (RU) with acetylcholine receptor [1] of 32 RU.

In the assay with acetylcholine receptor [1], KCTNR [5mer-901] registered a Binding affinity (RU) of 30 RU.

As for KFDWK [5mer-698], in the assay with acetylcholine receptor [2], the Binding affinity (RU) is 12 RU.

In the case of KDTMR [5mer-681], in the assay with acetylcholine receptor [2], the Binding affinity (RU) was determined as 18 RU.

RDSER [5mer-608]: in the assay with acetylcholine receptor [1], the Binding affinity (RU) is 20 RU.

Regarding RYDHK [5mer-978], the Binding affinity (RU) with acetylcholine receptor [2] was 30 RU.

In the assay with acetylcholine receptor [1], RPCFR [5mer-910] had a Binding affinity (RU) of 17 RU.

Molecule RHMMR [5mer-974] registered a Binding affinity (RU) in the assay with acetylcholine receptor [2] of 26 RU.

Turning to KASKK [5mer-697], the Binding affinity (RU) with acetylcholine receptor [2] is 25 RU.

RPSKK [5mer-693]: the Binding affinity (RU) in the assay with acetylcholine receptor [2] is 17 RU.

KFMHK [5mer-982] registered a Binding affinity (RU) with acetylcholine receptor [2] of 12 RU.

RECFK [5mer-605]: the Binding affinity (RU) with acetylcholine receptor [1] was 22 RU.

Turning to KNMIR [5mer-977], the Binding affinity (RU) in the assay with acetylcholine receptor [2] is 16 RU.

Regarding KNDKK [5mer-981], the Binding affinity (RU) in the assay with acetylcholine receptor [2] came out at 33 RU.

The molecule KEEPK [5mer-990] yielded a Binding affinity (RU) in the assay with acetylcholine receptor [2] of 12 RU.

Molecule RDPKR [5mer-985] gave a Binding affinity (RU) with acetylcholine receptor [2] of 17 RU.
